Patent US20210147536A1 (MAB VENTURE BIOPHARM, published 2021)

B1: scFv single chain antibody 11446 (scFv)
scFv: EVQLVESGGGVVQPGRSLRLSCAASGFTFSNYAMHWVRQAPGKGLEWVAVISYDGSDKYYADSVKGRFTISRDNSKNTLYLQMKSLRAEDTAVYYCARSIGFLESDAFDIWGQGTTVTVSSGGGGSGGGGSGGGGSGGGGASDIVLTQSPSSLSASVGDRVTITCQASHGISNFLNWYQQKPGKAPKLLIYDASTLETGVPSRFSGSGSGTDFRFTISSLQPEDIATYYCQQFDNLPITFGQGTRLEIK
notes: From phagemid pCLS1.0, which adds a C-terminal Myc-His tag
B2: scFv single chain antibody 11449 (scFv)
scFv: QVQLVQSGAEVKKPGASVKVSCKASGYTFTSYGISWVRQAPGQGLEWMGWISAYNGNTNYAQKLQGRVTMTTDTSTSTAYMELRSLRSDDTAVYYCARDEGANWGDAFDIWGQGTMVTVSSGGGGSGGGGSGGGGSGGGGASQLVLTQSPSASGTPGQRVTISCSGSSSNIGNNAVNWYQQLPGTAPKILIYSNNQRPSGVPDRFSGSKSGASASLAISGLQSEDESDYYCAAWDDSLNAVVFSGGTELTVL
notes: as for B1
B3: scFv single chain antibody 11451 (scFv)
scFv: QVQLQESGPGLVKPSETLSLTCTVSGGSISSGGYYWGWIRQPPGKGLEWIGSIYYSGRTYYNPSLKSRVTISVDTSRNQFSLKLSSLTAADTAVYYCARTGGGAYGFDYWGQGTLVTVSSGGGGSGGGGSGGGGSGGGGASQPVLTQPHSVSESPGKTVTISCTRSSGNIASNYVQWYQKRPGSPPTTVIYEDNQRPSGVPDRFSASIDSSSNSASLTISGLRTEDEADYYCQSYDTILGYVFGGGTQLTAL
notes: as for B1
B4: scFv single chain antibody 11452 (scFv)
scFv: EVQLLESGAEVKKPGASVKVSCKASGYTFTSYGISWVRQAPGQGLEWMGWISAYNGNTNYAQKLQGRVTMTTDTSTSTAYMELRSLRSDDTAVYYCARDGWWELLRPDDAFDIWGQGTTVTVSSGGGGSGGGGSGGGGSGGGGASQLVLTQSPSVSVSPGQTASITCSGDKLGDKYAYWYQQKPGQAPVLVIYYDSDRPSGIPERFSGSNSGNTATLTISRVEAGDEADYYCQVWDSSSDQVVFGGGTQLTVL
notes: as for B1
B5: scFv single chain antibody 11454 (scFv)
scFv: EVQLLQSGGGLVQPGGSLRLSCAASGFTFSSYEMNWVRQAPGKGLEWVSYISSSGSTIYYADSVKGRFTISRDNAKNSLYLQMNSLRAEDTAVYYCARVGLLDAFDIWGQGTMVTVSSGGGGSGGGGSGGGGSGGGGASQSVLTQPPSVSAAPGQKVTISCSGSSSNIGNNYVSWYQLIPEKAPRLLIYDDDKRPSGIPDRFSGSQSGTSATLGITGLQTGDEADYFCGTWDNSLSGAVFGGGTQLIIL
notes: as for B1
B6: scFv single chain antibody 11455 (scFv)
scFv: EVHLVESGGGVVQPGRSLRLSCAASGFTFSNYAMHWVRQAPGKGLEWVAVISYDGNNQYYADSVKGRFTISRDNSKNTLYLQMNSLRAEDTAVFYCARSIGFLESDAFDIWGQGTTVTVSSGGGGSGGGGSGGGGSGGGGASEIVLMQSPGTLSLSPGERATLSCRASQSFSDGSLAWYQQKPGQPPRLVIYDASKRATGIPDRFSGSRSGTEFTLTISSLQSEDFAVYSCQQYYNWPPTFGQGTRLEIK
notes: as for B1
B7: scFv single chain antibody 11458 (scFv)
scFv: RVRLQESGPGLVKPSETLSLTCTVSGGSISSSSYYWGWIRQPPGKGLEWIGSIYYSGSTYYNPSLKSRVTISVDTSKNQFSLKLSSVTAADTAVYYCAREYSGYDGAYVGYWGQGTLVTVSSGGGGSGGGGSGGGGSGGGGASQSVLTQPPSVSGAPGQRVTISCTGSNSNIRAGYDVHWYQQLPGTVPKLLIYGNSNRPSGVPDRFSGSKSGTSASLAISGLQSEDEGNYFCATWDDSLWGWVFGAGTELTVL
notes: as for B1
B8: scFv single chain antibody 11465 (scFv)
scFv: QVQLVQSGAEVKKPGSSVKVSCKTSGGTFSNYAINWVRQAPGQGLEWMGVIIPMFGPANYVQKFQGRVTITADETTSTAYMELSSLRSEDTAIYYCARDLAPAGFYGMDVWGQGTTVTVSSGGGGSGGGGSGGGGSGGGGASDIVLTQSPSSVSASVGDRVTITCRASQGISNWLAWYQQKPGKAPKLLIYAASSLQSGVPSRFSGSRSGTDFTLTISSLQPEDFATYYCQQARNFPFTFGQGTRLEIK
notes: as for B1

The binders below were run against T1, human LAG-3 on the cell surface (human, UniProt P18627 23-525) (assay: flow cytometry, soluble scFv supernatant on activated human CD4+ T cells, anti-His-PE).
T1 construct: whole, on cells; also called cells expressing the human LAG-3
T1 sequence (looked up): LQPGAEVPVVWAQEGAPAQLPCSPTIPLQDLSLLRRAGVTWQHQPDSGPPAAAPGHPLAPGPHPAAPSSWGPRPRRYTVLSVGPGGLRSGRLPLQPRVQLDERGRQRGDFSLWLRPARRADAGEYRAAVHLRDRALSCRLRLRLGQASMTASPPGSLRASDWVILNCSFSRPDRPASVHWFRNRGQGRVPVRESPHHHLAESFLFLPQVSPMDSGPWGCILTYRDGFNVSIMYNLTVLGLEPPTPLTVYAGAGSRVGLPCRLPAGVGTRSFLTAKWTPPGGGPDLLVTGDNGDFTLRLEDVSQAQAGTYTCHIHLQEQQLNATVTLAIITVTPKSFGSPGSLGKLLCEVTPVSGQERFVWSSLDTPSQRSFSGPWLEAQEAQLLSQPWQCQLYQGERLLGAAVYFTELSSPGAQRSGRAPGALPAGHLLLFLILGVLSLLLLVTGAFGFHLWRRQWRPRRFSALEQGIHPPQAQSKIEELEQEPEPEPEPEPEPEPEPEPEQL

Row | Binder | binding result
1 | B1 | binds
2 | B2 | binds
3 | B3 | binds
4 | B4 | binds
5 | B5 | binds
6 | B6 | binds
7 | B7 | binds
8 | B8 | binds
